Data from the supplement of paper PMC12764529.
± gives the half width of the 95% confidence interval.

Experiments:
[1] = folding stability dG unfold from trypsin proteolysis; higher = more stable
How it was run: (§1)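 Mini-proteins designed to be under 80 residues and free of cysteine were carried in a PA-tagged cDNA display construct and digested with trypsin and with chymotrypsin. Each protease was applied at 11 threefold-diluted concentrations, alongside a no-protease condition, before sequencing. K50 came from Bayesian fitting of the sequencing counts, and unfolding free energy was obtained by comparing it with a sequence-predicted unfolded-state K50 and a shared folded-state K50, for each protease separately or for both together. Designs were retained only if their AlphaFold2 dimer inter-PAE exceeded 15.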

[2] = folding stability dG unfold from chymotrypsin proteolysis; higher = more stable
How it was run: as §1

[3] = folding stability dG unfold (combined trypsin and chymotrypsin); higher = more stable
How it was run: as §1

Row | Sequence | folding stability dG unfold [1] [kcal/mol] | folding stability dG unfold [2] [kcal/mol] | folding stability dG unfold [3] [kcal/mol]
1 | SAGGSAGGMTVTIELPGSTYTVELPSSVKSVSELKVLEDGTLVLTFPSTGTTVTVPIPPPGSHHSAGGSAGG [r6_370_JUSTAS] | 1.03 ± 0.059 | 0.878 ± 0.13 | 1.01 ± 0.11
2 | SAGGSAGGMVEEIIEEFKKKGYNPEVEVRKTSPETTVVTLKLPDKEVIVEVKPLTPEELEEILRSAGGSAGG [r6_786_JUSTAS] | 0.371 ± 0.052 | 1.05 ± 0.089 | 0.824 ± 0.15
3 | SAGGSAGGMVTTKELPSNKTVTVTVTPDPVAGREGATVKPPSTSETKNFGDPAAAAAMSPEKLSSAGGSAGG [r6_740_JUSTAS] | 0.42 ± 0.034 | 0.2 ± 0.071 | 0.29 ± 0.15
4 | SAGGSAGGMVVYLQLPDKEATFFVPPSLSEEEVKERLKKALGDPDAPLTNLKIEEATPEELALESAGGSAGG [r6_122_JUSTAS] | -0.153 ± 0.095 | 0.515 ± 0.2 | 0.222 ± 0.13
5 | SAGGSAGGMVYITVDIKKTDPLNGTEREEVITVKVNPDEVEKVIEELKSAPVNVEILKVTIIPPSAGGSAGG [r6_151_JUSTAS] | 1.75 ± 0.075 | 1.4 ± 0.043 | 1.56 ± 0.065
6 | SAGGSAGGMYVIRVKIYDKETGELIEELTLVFDSEEEAERAVRELAAALPPDVRVEVEIVKLPPSAGGSAGG [r6_688_TrROS_Hall] | 5.01 ± 0.18 | 4.85 ± 0.059 | 4.99 ± 0.096
7 | SAGGSAGGNIDPDDITEVEEETYNFPNGWHIKIDYFRVPDDGQPIMKMEIEPMPPVKPDPNDKKSAGGSAGG [r6_758_TrROS] | -0.1 ± 0.11 | 1.23 ± 0.14 | 0.627 ± 0.25
8 | SAGGSAGGNIKVKVPYERHPDYYYMTVTIYDPGDDKKLELSYMFPPGTKMPAEEWARDIVKDILSAGGSAGG [r6_234_TrROS] | 0.789 ± 0.091 | 1.29 ± 0.1 | 1.13 ± 0.13
9 | SAGGSAGGNITPEAKKLVEELADQISEEFPNNGMDIEVEDITWQPDGNVVIRIRFNGWTIWIPVSAGGSAGG [r6_495_TrROS] | 1.44 ± 0.083 | 2.25 ± 0.05 | 2.03 ± 0.16
10 | SAGGSAGGPANKKYLLVADAEVDPETGTVKVTVEYPNGKKVEFTFPAKNFHPDEKVLVPVVVTDSAGGSAGG [r6_768_TrMRF] | 1.02 ± 0.052 | 0.67 ± 0.17 | 0.86 ± 0.1
11 | SAGGSAGGPEIRITEARRDPNGMFTFIVEIPPEDLDNIKPGEEIEITFNGQEFNFNVQIIPADDSAGGSAGG [r6_373_TrROS] | 0.257 ± 0.14 | 1.13 ± 0.2 | 0.716 ± 0.29
12 | SAGGSAGGPETIPLRFGEEEVLLVLSPEDPDRFLAYFPAEGRVYLYRLLPEGLEFLREVPAEELSAGGSAGG [r6_915_TrMRF] | 2.1 ± 0.066 | 2.03 ± 0.13 | 2.07 ± 0.1
13 | SAGGSAGGPEVTITVEEKDGYLVLTVTVPPGVERLELTIEVNGKLVTLELELKPGQTLTFVLPPSAGGSAGG [r6_971_TrROS_Hall] | 4.6 ± 0.3 | 3.86 ± 0.12 | 3.97 ± 0.13
14 | SAGGSAGGPEVYPVPGLTPEQFRELVERHGGRLRVVLPGGEEVELDFTRDSRPIPGKPAVVVFGSAGGSAGG [r6_303_TrMRF] | 0.498 ± 0.019 | -0.544 ± 0.12 | 0.12 ± 0.048
15 | SAGGSAGGPFKIKITEIFLIPFEPGEMIMIEIRFPNGKVYYIMLQVNPGNGWIWIAIMEIKPPDSAGGSAGG [r6_337_TrROS] | 3.91 ± 0.35 | 5.1 ± 0.12 | 4.74 ± 0.33
16 | SAGGSAGGPIKIKAKIFDPNGQPQEHEGEIDNPNGEPYKIKIDIFVLPDPDDEPNLVINVEIEPSAGGSAGG [r6_335_TrROS] | 1.38 ± 0.11 | 3.33 ± 0.17 | 2.77 ± 0.13
17 | SAGGSAGGPKIRIEIEHYDNYIVISIRIPPGMPPGQEIKFEIGGYPVKVTYDPEDGWMTISFPASAGGSAGG [r6_267_TrROS] | 3.24 ± 0.076 | 3.06 ± 0.082 | 3.2 ± 0.14
18 | SAGGSAGGPKTKTVDFIVPALDENGNPLPDNAKFTFKLPDKTINIDFKRDKDSDYVLVKATITNSAGGSAGG [r6_657_TrMRF] | 0.197 ± 0.11 | 0.901 ± 0.14 | 0.625 ± 0.098
19 | SAGGSAGGPLVFEADATGTAPDDKELVIERVLVVVDPVRGEAHLYARIPGTGEWRYLGTFDLKDSAGGSAGG [r6_329_TrMRF] | 2.91 ± 0.093 | 3.315 ± 0.023 | 3.21 ± 0.082
20 | SAGGSAGGPSLRLTFPFPPGFSVTIELFPDGTARITIHNSDGSLLLSFSIPLPPVIPPDPSSLLSAGGSAGG [r6_238_TrMRF] | 3.33 ± 0.17 | 2.63 ± 0.084 | 2.84 ± 0.38
21 | SAGGSAGGPVIEIEMPKNGFFRVKIWNPGNGKKQEYWIPPDEPDALKSLLDPGIDRVEIEPYPPSAGGSAGG [r6_640_TrROS] | -0.000886 ± 0.15 | 1.04 ± 0.1 | 0.671 ± 0.082

Row | Sequence | folding stability dG unfold [1] [kcal/mol] | folding stability dG unfold [2] [kcal/mol] | folding stability dG unfold [3] [kcal/mol]
22 | SAGGSAGGPVRITSVRPIPGDPNVVVLELETVDGRPGTVLLVRLPGGERVAVLTLGDRPVVLPLSAGGSAGG [r6_555_TrMRF] | 0.42 ± 0.013 | 1.93 ± 0.065 | 1.41 ± 0.045
23 | SAGGSAGGPVWKIRFPDDGKPYEFHINPNHGMIEVEDPKDGEPKGTVPMPINQLLEKGMEVEPVSAGGSAGG [r6_832_TrROS] | -0.769 ± 0.28 | -0.45 ± 0.26 | -0.551 ± 0.21
24 | SAGGSAGGRFRIKFKNGPVIEIDPNEPTIRFPDGSRRFPLNGDDAEEALEEFLSNGMKITEIEPSAGGSAGG [r6_340_TrROS] | -0.149 ± 0.2 | 0.99 ± 0.14 | 0.641 ± 0.16
25 | SAGGSAGGRIMIPVKNIKGQPAEEAKQWLKAILRELFPPGMKIDIDVQPDKDGEYWVTIDIKPPSAGGSAGG [r6_964_TrROS] | 1.64 ± 0.23 | 2.48 ± 0.099 | 2 ± 0.44
26 | SAGGSAGGRRIYLPDFGAGGSGLVKAAEIAAAFEEEGYVASVSFSTSPFGPSVLVVDVASPSELSAGGSAGG [r6_597_TrMRF] | -0.606 ± 0.17 | -0.0496 ± 0.13 | -0.171 ± 0.14
27 | SAGGSAGGRTLRIMVPMDSPEDAVEQAKEIVRELGLPPNFKIDDINVHRNPNGRYQVMVKIRVNSAGGSAGG [r6_284_TrROS] | 1.05 ± 0.052 | 1.5 ± 0.07 | 1.35 ± 0.064
28 | SAGGSAGGSAAITIEVKPGETVTITLEIEVELPPGARAADGRTFKPGEKVRVTVTLTLRVEPSAGGSAGGSA [r18_450_TrROS_Hall] | 3.72 ± 0.21 | 4.21 ± 0.27 | 4.26 ± 0.22
29 | SAGGSAGGSAAMLNRKPTVYPLPDDTVRLEETVPSPGTKIYKTIKLPPGGLIEEGDVSYPPSAGGSAGGSAG [r3_165_JUSTAS] | -1.08 ± 0.31 | -0.367 ± 0.23 | -0.521 ± 0.19
30 | SAGGSAGGSAAPEVTIKVTITYDPETNVLTIEAEATLPDGRKVRITARINKDGSIEIVSVEEVSAGGSAGGS [r12_1029_TrROS_Hall] | 4.63 ± 0.64 | 4.61 ± 0.91 | > 6
31 | SAGGSAGGSADDGDPNKQEPKPEVKVRPIEIRMSFAYYPPNGEPWMFSIEIRIWVYDGGLVSAGGSAGGSAG [r3_380_TrROS] | 3.85 ± 0.1 | 5.61 ± 0.095 | 5.34 ± 0.16
32 | SAGGSAGGSADEEKLKELAEKLREAGYEVEVERYPDKVVIRVRNKKTGKTLELVFDSVEEALSAGGSAGGSA [r18_278_TrROS_Hall] | 4.24 ± 0.12 | 2.95 ± 0.096 | 3.92 ± 0.15
33 | SAGGSAGGSADGPPTFRVRIKWKNGKKMKFEIDPNDSLEQVADPLSKLPGIDDIKDLEIYPSAGGSAGGSAG [r3_308_TrROS] | 0.725 ± 0.13 | 1.05 ± 0.44 | 0.764 ± 0.18
34 | SAGGSAGGSADNWFIQIKWRHPENGKKRTLHIPFKTPWDVEEIVEELAPPGMDEVEVKIYPFSAGGSAGGSA [r18_258_TrROS] | 0.707 ± 0.051 | 1.25 ± 0.091 | 1.03 ± 0.061
35 | SAGGSAGGSADPSVKPPVIKRLVIDIPLEELEKLFPGKLEKAVELAEEAVKLGFDEVVILGGSAGGSAGGSA [r18_441_TrMRF] | 0.116 ± 0.031 | 1.12 ± 0.023 | 0.793 ± 0.049
36 | SAGGSAGGSADVVVEVEYDSSGDYVLVKVKLKEKEIPFKFSKSLSPEEVIEKAKELAKKAAKSAGGSAGGSA [r18_266_TrMRF] | 0.597 ± 0.098 | 0.584 ± 0.27 | 0.677 ± 0.13
37 | SAGGSAGGSAEEKVFVKLYLNPNEPPTIDLEFFFEDGRVVRLRLDLATGTLNDIDPRPLDFSAGGSAGGSAG [r3_299_TrMRF] | 2.74 ± 0.082 | 2.97 ± 0.046 | 2.8 ± 0.12
38 | SAGGSAGGSAEELAKELAKKLPPGAKFKIEVKTEYYKTKDGKTVKKKVEIKIYNEDGEEVTSAGGSAGGSAG [r3_247_TrROS_Hall] | -0.0104 ± 0.19 | 1.1 ± 0.51 | 0.679 ± 0.32
39 | SAGGSAGGSAEIKIEYTLAPDGTLYVKVEIPNPETGETLVLEGPFDSLEEAIEVAKELEKESAGGSAGGSAG [r3_174_TrMRF] | 2.29 ± 0.23 | 2.77 ± 0.056 | 2.68 ± 0.18
40 | SAGGSAGGSAEITFNFPNPNGRPYPISIEIEKPKRNPDGKYRYDYKIKVSPGMPKEAAKDLFSAGGSAGGSA [r18_272_TrROS] | -0.849 ± 0.39 | -0.314 ± 0.33 | -0.351 ± 0.2
41 | SAGGSAGGSAEITVEWPNGRPVTVEPDPDSGMYEARFPDGWVVRAPFTNGKIPIDWIPPKDVSAGGSAGGSA [r18_405_TrROS] | -0.578 ± 0.28 | 0.282 ± 0.07 | 0.00326 ± 0.08
42 | SAGGSAGGSAEIVPVDGKLYVRIEVDGKTYVFEFDSVEELKNATFTLPNGKKVKVEIVPKEDLSAGGSAGGS [r12_730_TrROS_Hall] | 2.26 ± 0.067 | 3.433 ± 0.029 | 3.12 ± 0.059
